The target in test [1] is ROR1 with Ig-like domain removed (human). The experiment in a line: FACS. For orientation: In flow cytometry, cells or beads pass a laser one at a time.
For test [2], the target named is human ROR2-ECD (human, UniProt Q01974). The experiment in a line: ELISA.
The target in test [3] is ROR1 extracellular segment (with transmembrane) on CHO (human). Nature of the test: FACS.
Test [4] has as its target T1, human ROR1 on tumor cell surface (human, UniProt Q01973). The experiment in a line: FACS, MDA-MB-231.
In test [5] the target is ROR1 with Ig-like domain removed (human). The experiment in a line: FACS. The source holds these as a separate data set.
Test [6] concerns the target T2, ROR1 with Frizzled domain removed (human).
T2 chain: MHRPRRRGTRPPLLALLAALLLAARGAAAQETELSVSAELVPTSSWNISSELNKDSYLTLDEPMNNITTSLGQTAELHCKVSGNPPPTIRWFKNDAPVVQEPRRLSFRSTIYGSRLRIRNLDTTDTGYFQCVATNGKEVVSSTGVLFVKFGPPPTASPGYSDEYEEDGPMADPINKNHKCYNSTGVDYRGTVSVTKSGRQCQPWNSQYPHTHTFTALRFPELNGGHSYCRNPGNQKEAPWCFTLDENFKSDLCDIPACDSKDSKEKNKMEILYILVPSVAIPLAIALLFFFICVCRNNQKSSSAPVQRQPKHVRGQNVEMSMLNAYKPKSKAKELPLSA
The experiment in a line: FACS.

For test [7], the target named is T1, human ROR1 on tumor cell surface. The experiment in a line: FACS, NCI-H226.
In test [8] the target is human ROR1-ECD (human). The experiment in a line: ELISA. A general note: In an ELISA, binding on a coated surface is turned into a signal by an enzyme label.
The target of test [9] is ROR1 with Kringle domain removed (human). Nature of the test: FACS.

T1 sequence (Q01973 30-406): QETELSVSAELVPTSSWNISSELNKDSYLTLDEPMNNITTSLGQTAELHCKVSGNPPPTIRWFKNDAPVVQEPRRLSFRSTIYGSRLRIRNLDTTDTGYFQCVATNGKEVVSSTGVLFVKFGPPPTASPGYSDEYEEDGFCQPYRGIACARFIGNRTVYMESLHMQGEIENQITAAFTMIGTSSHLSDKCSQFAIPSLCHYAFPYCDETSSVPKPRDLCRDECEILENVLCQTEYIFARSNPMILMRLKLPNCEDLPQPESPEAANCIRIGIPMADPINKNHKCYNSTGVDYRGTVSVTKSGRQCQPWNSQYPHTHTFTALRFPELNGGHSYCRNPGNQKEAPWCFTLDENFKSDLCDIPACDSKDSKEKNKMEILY
Chain of human ROR2-ECD (Q01974 34-403): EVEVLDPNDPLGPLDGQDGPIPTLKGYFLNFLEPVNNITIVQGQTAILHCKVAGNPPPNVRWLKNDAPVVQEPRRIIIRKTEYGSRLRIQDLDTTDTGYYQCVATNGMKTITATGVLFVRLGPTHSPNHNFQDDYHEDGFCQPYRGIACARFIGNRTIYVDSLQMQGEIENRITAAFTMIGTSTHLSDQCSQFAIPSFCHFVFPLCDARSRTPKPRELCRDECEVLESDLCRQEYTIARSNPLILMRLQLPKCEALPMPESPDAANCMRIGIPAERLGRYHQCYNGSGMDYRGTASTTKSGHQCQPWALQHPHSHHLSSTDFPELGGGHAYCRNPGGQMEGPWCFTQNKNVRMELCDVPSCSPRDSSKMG
Chain of human ROR1-ECD (human) (chain, as listed by the source): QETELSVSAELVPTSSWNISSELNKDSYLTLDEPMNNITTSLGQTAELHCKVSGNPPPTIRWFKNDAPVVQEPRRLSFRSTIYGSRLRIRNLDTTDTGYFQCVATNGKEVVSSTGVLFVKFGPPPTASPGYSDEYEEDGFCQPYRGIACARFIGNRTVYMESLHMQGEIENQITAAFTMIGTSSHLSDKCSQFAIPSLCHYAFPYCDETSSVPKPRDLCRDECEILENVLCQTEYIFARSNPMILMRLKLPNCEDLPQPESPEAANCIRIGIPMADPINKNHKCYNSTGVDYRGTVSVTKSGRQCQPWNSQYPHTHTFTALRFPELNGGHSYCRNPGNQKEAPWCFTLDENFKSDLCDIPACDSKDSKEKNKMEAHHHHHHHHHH

B1: mAb005c (antibody, V domains shown)
VH: EVQLVESGGGLVKPGGSLKLSCAASGFTFNSYAMSWVRQTPEKRLEWVATISDGGSYTYYPDNEKGRFTISRDNAKNNLYLQMSHLKSEDTAIYYCVRGGYYYNLYAMDYWGQGTSVTVSS
VL: DIVLTQSPASLAVSLGQRAIISCKASQSVSFPGTSLMHWYQQKPGQQPKLLIYRASNLEAGVPTRFSGSGSRTDFTLNIHPVEEDDTATYYCQQSREYPWTFGGGTQLEIK
On to B1, for which the binding result in test [1] is given as “no binding”.

B2: Hu005-46 (antibody, V domains shown)
VH: EVQLVESGGGLVKPGGSLRLSCAASGFTFNSYAMSWVRQTPGKRLEWVATISDAGSYTYYPDNEKGRFTISRDNAKNSLYLQMNSLRAEDTAIYYCVRGGYYYNLYAMDYWGQGTLVTVSS
VL: DIVLTQSPDSLAVSLGERATINCKASQSVSFPGTSLMHWYQQKPGQQPKLLIYRASNLEAGVPDRFSGSGSRTDFTLTISSLQAEDVAVYYCQQSREYPWTFGGGTKVEIK
In the case of B2, in test [2], the binding result was “no binding”.

B3: mAb003c (antibody, V domains shown)
VH: EVQLVESGGGLVKPGGSLKLSCAASGFTFSSYAMSWVRQTPEKRLEWVATISDGGSYTYYPDSVKGRFTISRDNAKNNLYLQMSHLKSEDTDMYYCVRGGYYYNLYAMDYWGQGTSVTVSS
VL: DIVLTQSPASLAVSLGQRAIISCKASQSVSFAGTSLMHWYQQKPGQQPKLLIYRASNLEAGVPTRFSGSGSRADFTLNIHPVEEDDAATYYCQQSGEYPWTFGGGTKLEIK
For the molecule B3, the binding result in [1] is “no binding”.

B4: mAb002c (antibody)
chain 1: EVQLQQSGPELVKPGASVKMSCKTSGYTFTDYNLHWVKQSHRRSLEWIGYINPNNGGTTYNQKFKGKATLTVDKSSSTAYMELRSLTSEDSAVYYFVRRVRTGTGFDYWGQGTTLTVSS
chain 2: EVLMTQTPLSLPVSLGDQASISCKSSHNILHTNGNTYLEWYLQKPGQSPKLLIYKVSNRFSGVPDRFSGSGSGTDFTLTISRVEAEDLGVYYCFQGSRFPYTFGGGTKLEIK
A word on the EC50: it is the concentration needed to bring the measured effect to its halfway point. Read a high EC50 as lower potency in that assay. In the case of B4, the EC50 worked out at 0.6 nM in test [3]; 0.2 nM in test [4]; 0.35 nM in test [5]; 0.86 nM in [6]; 0.14 nM in test [7]; 0.013 nM in [8]. This molecule came in with an EC50 in [9] of 0.66 nM.

B5: mAb002 (mouse) (antibody)
chain 1: EVQLQQSGPELVKPGASVKMSCKTSGYTFTDYNLHWVKQSHRRSLEWIGYINPNNGGTTYNQKFKGKATLTVDKSSSTAYMELRSLTSEDSAVYYFVRRVRTGTGFDYWGQGTTLTVSS
chain 2: EVLMTQTPLSLPVSLGDQASISCKSSHNILHTNGNTYLEWYLQKPGQSPKLLIYKVSNRFSGVPDRFSGSGSGTDFTLTISRVEAEDLGVYYCFQGSRFPYTFGGGTKLEIK
As to B5, the 50% effective concentration (EC50) in test [4] came to 0.11 nM; in test [8], 0.028 nM.

B6: Hu001-02 (antibody, V domains shown)
VH: QVQLVQSGAEVKKPGASVKVSCKASGYTFTDYNLHWVRQAPGQGLEWMGYINPNHDATSYNQKFQGRVTMTRDTSTSTVYMELSSLRSEDTAVYYCARRVRTGTGLDDWGQGTTVTVSS
VL: DVVMTQSPLSLPVTLGQPASISCRSSHNIVHTNANTYLEWYQQRPGQSPRLLIYKVSNRFSGVPDRFSGSGSGTDFTLKISRVEAEDVGVYYCFQGSRFPYTFGGGTKVEIK
Regarding B6, in test [2], the binding result is listed as “no binding”.

B7: UC-961 (antibody, V domains shown)
VH: QVQLQESGPGLVKPSQTLSLTCTVSGYAFTAYNIHWVRQAPGQGLEWMGSFDPYDGGSSYNQKFKDRLTISKDTSKNQVVLTMTNMDPVDTATYYCARGWYYFDYWGHGTLVTVSS
VL: DIVMTQTPLSLPVTPGEPASISCRASKSISKYLAWYQQKPGQAPRLLIYSGSTLQSGIPPRFSGSGYGTDFTLTINNIESEDAAYYFCQQHDESPYTFGEGTKVEIK
Regarding B7, the binding result in [1] is “no binding”.

The record behind these values is patent US20260325660 (published 2026).
